Data from publication PMC9408895.
Changes are numbered by the printed parent chain. Names and notes keep the numbering of the source.

B1: GST-AtSARK-CD, cytoplasmic domain of Arabidopsis thaliana senescence-associated receptor-like kinase AtSARK, wild type, Q8VYT3 Y413F (protein)
chain: CWYRKKQRRLLILNLNDKQEEGLQGLGNLRSFTFRELHVYTDGFSSKNILGAGGFGNVYRGKLGDGTMVAVKRLKDINGTSGDSQFRMELEMISLAVHKNLLRLIGYCATSGERLLVYPYMPNGSVASKLKSKPALDWNMRKRIAIGAARGLLFLHEQCDPKIIHRDVKAANILLDECFEAVVGDFGLAKLLNHADSHVTTAVRGTVGHIAPEYLSTGQSSEKTDVFGFGILLLELITGLRALEFGKTVSQKGAMLEWVRKLHEEMKVEELLDRELGTNYDKIEVGEMLQVALLCTQYLPAHRPKMSEVVLMLEGDGLAERWAASHNHSHFYHANISFKTISSLSTTSVSRLDAHCNDPTYQMFGSSAFDDDDDHQPLDSFAMELSGPR
B2: GST-AtSARK-CD, cytoplasmic domain of Arabidopsis thaliana senescence-associated receptor-like kinase AtSARK, wild type, Q8VYT3 Y473F (protein)
chain: B1 chain with F154Y, Y214F
B3: GST-AtSARK-CD, cytoplasmic domain of Arabidopsis thaliana senescence-associated receptor-like kinase AtSARK, wild type, Q8VYT3 S384A (protein)
chain: B1 chain with S125A, F154Y
B4: GST-AtSARK-CD, cytoplasmic domain of Arabidopsis thaliana senescence-associated receptor-like kinase AtSARK, wild type, Q8VYT3 S304A (protein)
chain: B1 chain with S45A, F154Y
B5: GST-AtSARK-CD, cytoplasmic domain of Arabidopsis thaliana senescence-associated receptor-like kinase AtSARK, wild type, Q8VYT3 T326A (protein)
chain: B1 chain with T67A, F154Y
B6: GST-AtSARK-CD, cytoplasmic domain of Arabidopsis thaliana senescence-associated receptor-like kinase AtSARK, wild type, Q8VYT3 S384D (protein)
chain: B1 chain with S125D, F154Y
B7: GST-AtSARK-CD, cytoplasmic domain of Arabidopsis thaliana senescence-associated receptor-like kinase AtSARK, wild type, Q8VYT3 Y413E (protein)
chain: B1 chain with F154E
B8: GST-AtSARK-CD, cytoplasmic domain of Arabidopsis thaliana senescence-associated receptor-like kinase AtSARK, wild type, Q8VYT3 S304D (protein)
chain: B1 chain with S45D, F154Y
B9: GST-AtSARK-CD, cytoplasmic domain of Arabidopsis thaliana senescence-associated receptor-like kinase AtSARK, wild type, Q8VYT3 Y473E (protein)
chain: B1 chain with F154Y, Y214E
B10: GST-AtSARK-CD, cytoplasmic domain of Arabidopsis thaliana senescence-associated receptor-like kinase AtSARK, wild type, Q8VYT3 T465D (protein)
chain: B1 chain with F154Y, T206D
B11: GST-AtSARK-CD, cytoplasmic domain of Arabidopsis thaliana senescence-associated receptor-like kinase AtSARK, wild type, Q8VYT3 T326D (protein)
chain: B1 chain with T67D, F154Y
B12: GST-AtSARK-CD, cytoplasmic domain of Arabidopsis thaliana senescence-associated receptor-like kinase AtSARK, wild type, Q8VYT3 T465A (protein)
chain: B1 chain with F154Y, T206A

Biological target: T1, senescence-suppressed protein phosphatase SSPP (His-SSPP)
T1 chain: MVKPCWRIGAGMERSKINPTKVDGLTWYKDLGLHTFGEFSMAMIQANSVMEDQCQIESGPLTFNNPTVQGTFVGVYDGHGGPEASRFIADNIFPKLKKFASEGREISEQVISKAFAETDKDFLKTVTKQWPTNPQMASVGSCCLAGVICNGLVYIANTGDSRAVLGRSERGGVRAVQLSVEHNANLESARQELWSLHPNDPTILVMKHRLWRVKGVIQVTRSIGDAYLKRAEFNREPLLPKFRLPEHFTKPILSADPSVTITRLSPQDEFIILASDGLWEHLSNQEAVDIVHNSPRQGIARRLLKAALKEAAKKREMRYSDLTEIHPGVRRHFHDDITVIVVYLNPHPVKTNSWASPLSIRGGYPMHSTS
Test: in vitro pull-down (His-SSPP-bound Ni-NTA beads, anti-GST blot)
Settings: chain shown with the change; 20% pull-down, 10% input loaded; parent: 1.00

Question: For B1, which ratio to parent is on record?
Answer: 1.16

Question: How did the ratio to parent turn out when B2 was run?
Answer: 0.96

Question: For B3, which ratio to parent is on record?
Answer: 0.23

Question: With B4 as the binder, how does the ratio to parent read?
Answer: 1.08

Question: With B5 as the binder, how does the ratio to parent read?
Answer: 0.97

Question: With B6 as the binder, how does the ratio to parent read?
Answer: 1.04

Question: For B7, which ratio to parent is on record?
Answer: 0.12

Question: B8 was tested. Which ratio to parent did it give?
Answer: 0.95

Question: Which ratio to parent does the source give for B9 here?
Answer: 0.98

Question: With B10 as the binder, how does the ratio to parent read?
Answer: 0.88

Question: B11 was tested. Which ratio to parent did it give?
Answer: 0.84

Question: Which ratio to parent does the source give for B12 here?
Answer: 0.9
